Results from the nanobody polyreactivity screen of Harvey et al. (2022).

Assay: yeast display, Sf9 membrane polyspecificity reagent, FACS + sequencing; frameworks hold sequencing errors
How it was run: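 Galactose induction of a Saccharomyces cerevisiae BJ5465 synthetic nanobody display library ran 36–48 hours. The cells were then stained for 1 hour at 4 °C with 10% biotinylated, detergent-solubilized Sf9 membrane reagent, pulled down on streptavidin microbeads and FACS-sorted into low and high (top ~1%) gates on expression and reagent-binding fluorescence. Labels for polyreactivity follow the gate of origin.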

Sequence | polyreactivity (PSR sort gate)
QVQLVESGGSLVQAGGSLRLSCAASGFIFIRYAMGWYRQAPGKERELVAAITTSTGRTYYADSVKGRFTISRDNAKNTVYLQMNSLKPEDTAVYYCAAVPWKRYDYYTPFARGYWGQGTQVTVSS | low polyreactivity
QVQLVESGGVFVQAGGSLRLSCAASGSIFPYVNAMGWYRQAPGKEREFVASIPGGGGTKYADSVKGRFTISRDNAKNTVYLQMNSLKAEDTAVYYCNATSGNPASTAWMNYWGQGTQVSVSS | low polyreactivity
QVQLVESGGVIVQAGGSLRLSCAASGFTFQAYAKGWYRQAPGKETELVAAITRSGGRTYYADSVKGRFTISRDNAKNTVYFQMKRLKPEDTAVYYCAKLSDSITLYGYWGQGTQVTVSS | high polyreactivity
QVQLVESGGVLDQAGGSLRLSCAAAGITSPDNVMGWYRKAPGKEFDLVAANSGSGGSTYYADYVQGRFTISRDNAKNSVYLQINILKPEDTAVYYCAADVEYKVFPGDYWGQGTQVTVSS | low polyreactivity
QVQLVESGGVLFQAGGSLRLSCAASGRISYANAIGWYRQAPGKESEMVASITYSAGSTYADSVKGRFTISRDNAKNTVYLQMISLKPEDTAVYYCAKRPCQHYRSYLMDYWGQGTQVNVSS | low polyreactivity
QVQLVESGGVLLQGGGSLRLTWAASGGIFTDYTIRSYRQAPGKERELVADITWTGGSTYYPDSVKGRFTISRDNAKNTVYLQMNSLKPEDTAVYYCAADDYWVNLDYWGQGTQVTVSS | low polyreactivity
QVQLVESGGVLVQAGASLRLSCAASGLTFAVYTMGGYRQAPGKEMELVAAITWDGGITYYADSVKGRFTISRDNAKYTVYLQMNSLKPEDTAVYYCAADYALGEVYWYNYWGQGTQVTVSS | low polyreactivity
QVQLVESGGVLVQAGGSLRISSAASGRIFKVYAMGWYRQAPGKEREFVAVITGGGSTNYADSVKGRFTISRDNAKNTVYLQMNSLKPEDTGVYYCATEGYGHGGETDGGVYSDLGYWGQGTQVTVSS | low polyreactivity
QVQLVESGGVLVQAGGSLRLSCAASGFIFRSNGMGWYRQARGKERELVAVITSSTGSTSYADSVKGRFTISRDNAKNTVYLQMNSLKPEDTAVYSCAADYQFGRGAEPYVFFDPEMDYWGQGTQVTESS | low polyreactivity
QVQLVESGGVLVQAGGSLRLSCAASGFTFGPYAMGWYRPAPGKERELVATIRSGDSTNYADSVKGRFTISRDNAKNTVYLQMNSLKPEDTAVYYCARDARASARRKRYDYGGQGTQVTVSS | low polyreactivity
QVQLVESGGVLVQAGGSLRLSCAASGFTFLAYAMGWYRQAPGKERELVAAINSSDGTTHYADSVKGRFTISRDNAKITVYLQMNSLKPEDTAVYYCAVSQVRTGEGYHYWGQGTQVTVSS | low polyreactivity
QVQLVESGGVLVQAGGSLRLSCAASGIIFGRDTMGWYRQAPGKERELVAAITSSGITYYADSVKGRFTFSRDNAKNCVYLQMNSLKPEDTAVYYCIADYSIPGYYWPYDYWGQCTQVTVSS | low polyreactivity
QVQLVESGGVLVQAGGSLRLSCAASGIIFVYNPMGWYRPAPGKERELVAGISWNGVSTYYADSVKWRFTISRDYAKYTVYLQMNSLKPEDTAVYYCAASLWVYVGQARYLWYDYWGQGTQVTVSS | low polyreactivity
QVQLVESGGVLVQAGGSLRLSCAASGITFGDNAMGWYRQAPGKERELVAAITTSVDSTYYADSVKGRFTISRDNAKNTVYLQMNSLKPEDTAVYYCAVAFVQFTQYDYWGQGTQVTVSS | low polyreactivity
QVQLVESGGVLVQAGGSLRLSCAASGITFIGYAMGWYRQAPGKERELVASITSGANTNYADSVKGRFTISRDNAKNTVYLQMNSVKAEDTAVYYCAAPEHGTYANILGEPLDYWGQGTQVTVSS | low polyreactivity
QVQLVESGGVLVQAGGSLRLSCAASGITFPGYAMGWYRKAPGKERELVAAISAIGGRTYYADSVKGRFTISRYNAKNTVYLQMNSLKPEDTAVYYCNVLPYGGKKPTLFDYWGQGTQVTVSS | high polyreactivity
QVQLVESGGVLVQAGGSLRLSCAASGNIFVPYAMGWYRQAPGKERDLVAAISSRGGRTYYADSVKGRFTISRDNAKNTVYLQMNSLKPEDTAVFYCNKVAKSSVLTLDYWGQGTQVTVSS | high polyreactivity
QVQLVESGGVLVQAGGSLRLSCAASGRIFDDYAMGWYRQAPGKERELVAAIRSGGNSNYADSVKGRFTISRDNAKNTVYLQMNSLTPEETAVYYCAADEVRSAWRCSSPPDYDHWGQGTHVTVSS | low polyreactivity
QVQLVESGGVLVQAGGSLRLSCAASGRIFHYYAMGWYRQAPGKETELVAANSSRRGSTYYADSVKGRFTISRDNAKNNFYLQMNILKAYDTAVYYCNARGWGYWVRFDYWGQGTQVTVSS | high polyreactivity
QVQLVESGGVLVQAGGSLRLSCAASGRIFRNYVMGWYRQAPGKEREMVAAISRSGGSTYYADSVKGRFTISRDNAKNTVYLQMNSLKPEDTAVYYCNAEYASRRVSERDYWGQGTQVTVSS | high polyreactivity

Sequence | polyreactivity (PSR sort gate)
QVQLVESGGVLVQAGGSLRLSCAASGRILFSYGMGWYRQATGKERELVARISWSGGNTHYADSVKGRFTISRDNAKNTVYLQMNSLKPEDTAVYYCNAYYTYWYPRYDYWGQGTQVTVSS | low polyreactivity
QVQLVESGGVLVQAGGSLRLSCAASGRTFLNYTMGWYRQAPRKDIELVAAISTSGGSTNYADSVKGRFTISRDNAKNTVYLQMTSLKPEDTAVYYCAAETSTKPEAYEYWGQGTQVTVSS | low polyreactivity
QVQLVESGGVLVQAGGSLRLSCAASGRTFYGYAMGWNRQAPGKERYLVAAIDIDVGNTYYADSVKGRFTISRDNAKNTVYLQMNSLKPEDTAVYYCAAEIPSWWLPALFRYDYWGQGTQVTVSS | low polyreactivity
QVQLVESGGVLVQAGGSLRLSCAASGRTFYLYAMGWSRQAPGKERELVAAISRSGGITYYADSVKGRFTISRDNAKNTVYLQMNSLKPEDTAVYYCAASRAGGYYGKGYSWGQGTQVTVSS | high polyreactivity
QVQLVESGGVLVQAGGSLRLSCAASGRTFYSYAMGWYRQAPGNERELVAAITSSGGSTYYADSVKGRFTISRDNAKNTVYLQMNRLKPEDTAVYYCAAPRGRHFDYWGQGTQVTVSS | high polyreactivity
QVQLVESGGVLVQAGGSLRLSCAASGRTVTVNAMGWYRQAPGKERELVAAITGRGGNTNYADSLKGRFTISRDNAKNTVYLQMNSQKPEDTAVFYCYARYHGRAKHDYWGQGTQVTVSS | high polyreactivity
QVQLVESGGVLVQAGGSLRLSCAASGSIFWSNAMGWSRQAPGKERELVAAITTSDGSTYYADSVKGRFTISRDHAKNTVYLQMNSLKPEDSAVYYCAADASTWYTEEYWGQGTQVTVSS | low polyreactivity
QVQLVESGGVLVQAGGSLRLSCAASGSIFYSYAMGWYRQAPGKDRELVAAITRSGGSTYYADSVKGRFTISRENAKNTVYVQMHSLKPEDTAGYYCNARGKGDYYWGQGTQVTVSS | high polyreactivity
QVQLVESGGVLVQAGGSLRLSCAASGSTFGLNAMGWYRQAPGKERELVAAITRSDITNYADSVKGRFTISRDNAKNTVYLQMNSLKPEDTAVYYCAARGLWPYDYWGQGTQVTVSS | low polyreactivity
QVQLVESGGVLVQAGGSLRLSCAASGSTFHRSAMGWYRQAPGKERELVATINLNTGSTYADSVKGRFTISRDNAKNTVYLQMNSLKPEDTAVYYCAAYGRWPFTWYNYWGQGTQVTVSS | low polyreactivity
QVQLVESGGVLVQAGGSLRLSCAASGSTFSYYTMGWYRQAPGKERELVATISKRGGTTSYADSVKGRFTISRDNAKNTVYLQMNSLKPEDTAVYYCAARYSKVHYAYDYWGQGTQVTVSS | high polyreactivity
QVQLVESGGVLVQAGGSLRLSCAASGSTFYNNAMGWYRQAPGKERALVATISSGGGSTYYADSVKGRFTISRDNEKNTVYLQMNSLKPEDTAVYYCAAYVLPYGEYDYWGQGTQVTVSS | low polyreactivity
QVQLVESGGVLVQAGGSLRLSCAASGSTLSPYVMGWYRQAPGKERELVATISRSGGRTYYADSVKGRFTISRDNAKNTVYLQMNSLKPEETAVYYCAARTYYWGALIVSYDYWGQGTQVTVSS | low polyreactivity
QVQLVESGGVLVQAGGSLRLSCAASGTFVVNDMGWYRQGPGKERELVAALSWSGGSTYYADSVKGRFTISRDNAKNTVYLQMTSLKPEDTAVYYCAADNWWVYPVWYENDYWGQGTQVTVSS | low polyreactivity
QVQLVESGGVLVQAGGSLRLSCAASGTFYPNARGWYRQAPGKDRELVAALSEDGGGTYYADSVKGRFTISRDNAKNTVYLQMNSLKPEDTAVYYCAAEYYDYWYTFDYWGQGTQVTVSS | high polyreactivity
QVQLVESGGVLVQAGGSLRLSCAASGYIFEGNAMGWYRQAPGKERDFVAAITKRGGSTYYADSVKGRFTISRDNAKNTVYLQMNSLKPEDTAVYYCAADRSYPRAGRYDYWGQVTQVTVSS | low polyreactivity
QVQLVESGGVLVQAGGSLRLSCAASRSIFQGYVMGWYRQAPGKERELVAAISYSGDSTYYADSVKGRFTNSRDNAKNTVSLQINSVKPEDTAVYYCNAYRNRYGYRTSSRRYGYWGQGTQVTVSS | high polyreactivity
QVQLVESGGVLVQAGGSLRLSCAASRSTFTSYAMGWSRQAPGKERELVADISFSGGSTYYADSVKGRFTISRDIAKNSVYSQMNRLTPEDTAVYSCAARIYKRYYWGQGTQVTVSS | high polyreactivity
QVQLVESGGVLVQAGGSLRLSCAASVGIFDYYTMGWYRQAPGKERELVAAISASGGITYYADSVKGRFTISRDNANNTVYLQMNSMKPEDTAVYYCAAGVRNDYWWYYYWGQGTQVTVSS | high polyreactivity
QVQLVESGGVLVQAGGSLRLSCAAYGFSFNDYAMGWYRQAPGKERELVAAIDWSGGRTYYADSVKGRFTISRDNAKNTVYLQMNSLKPEDTAVYYCAAVLYSRLYWYRLDYWGQGTQVTVSS | low polyreactivity
